Test results as given in patent US20250297232A1, “BACTERIAL MYELOPEROXIDASE-CATALASE AND APPLICATIONS THEREOF” (priority 2022, published 2025).

Columns and labels:
Format in all cases: biochemical
[1] = Steady-state kinetics by stopped-flow, NaBr (Tau-NHBr formation, 289 nm); settings: Br^− 500 mM, 267 nM RbMPO, H2O2 79 μM
Procedure: pH- and temperature-dependent studies were carried out for each substrate.
These temperatures were reached by using a stopped-flow coupled to a cryostat.
For temperature and pH measurements, RbMPO was set at the same concentration as in the determination of steady state kinetics parameters.

[2] = Pre-steady state: return of wt RbMPO to its native state, I^− range; settings: from pre-steady state return to native state with I^−, SCN^−, Br^−, Cl^−
Procedure: (§1) Kinetic parameters under pre-steady-state condition were performed with a Biologic SFM400 stopped-flow at 412 nm, 37° C. and with 50 mM sodium phosphate buffer at pH7.5. […] An exponential linear fit was applied to each kinetic using the following formula: […]
(§2) The return of the enzyme to its native state was studied by the impact of increasing concentrations of (pseudo)-halides substrates on compound I (FIG. 9B). […] It is the time difference (s) between the two characteristic steps that allowed the calculation of the values of the Vreturn(μM^−1.s^−1) values: […]

[3] = Pre-steady state: return of wt RbMPO to its native state, Cl^− range; settings: H2O2: 20 μM
Procedure: as §1, §2

B1: wt RbMPO: novel bacterial heme peroxidase (myeloperoxidase-catalase) of about 78 KDa from Rhodopirellula baltica, SEQ ID NO: 1, produced recombinantly in E. coli (protein, listed as Rhodopirellula baltica)
chain: MLFWSKRTRKHPGRKRRRLRSEQLESRQLLAADFGGYRHNIYDAEDVNDDGRVSAIDALLVINAMTSETSRDENVFTDVNGDGRRSALDALRVINRIERGDVFPIDTSGDEDLNTLLPEMPSEVRSIDGSGNNPNDHLWGSVGQRLIRMAPAAYGDGISTLAGANRPSAREVSNVLSAMNTSQVLNDRGLSAFVYVWGQFIDHDLGLTESDEHGEAIDISVPEGDLWFDPMGSGEAVIPMTRTPIADGTGTSVGNPAQQFNQITAFIDGSMVYGSDAATAERLRTFAGGRLAISDNGLLPMDESGMVIAGDVRASENVGLTAIQTLFVREHNRLADEIFAADPEATDEEIYQRARLVVASLIQSITYNEFLPALLGQRAMDSYRGYDASVNPGIANEFSTAAFRLGHSTLRDEVGFMSNDGRESKDEMELKDAFFHASMLEETGIDSLLKFDASVQAQEIDLAVVDSLRNFLFGPPGAGGLDLVAMNIQRGRDHGLSDYNTTRQAYGLDRVETFDQITGDVELQQKLASLYGTVDNIDLWVGLMAEDHQHDASVGELTGLIIADQFQRTRDGDRFFYKNVLTDSEVESIERSTLADLIERNTSVDGLQENVFFMQVELRGRVILASSIPPNTMPSEVREEEIRGVSGMAIELIDASGKLVDSTVSDQHGNYRFRALSETGDYQVRLSESGEAMDVLVAHGAERIRGLDFIVLA
kss ([1]; 37° C., pH 4): 0 ± 0 s⁻¹
kss ([1]; 37° C., pH 5): 1.5 ± 0.004 s⁻¹
kss ([1]; 37° C., pH 6): 14.5 ± 0.03 s⁻¹
kss ([1]; 37° C., pH 7): 11.0 ± 0.02 s⁻¹
kss ([1]; 37° C., pH 8): 4.8 ± 0.01 s⁻¹
kss ([1]; 37° C., pH 9): 1.3 ± 0.004 s⁻¹
kss ([1]; 37° C., pH 10): 0.8 ± 0.007 s⁻¹
kss ([1]; pH 7.5, 10° C.): 9.5 ± 0.01 s⁻¹
kss ([1]; pH 7.5, 20° C.): 23.4 ± 0.02 s⁻¹
kss ([1]; pH 7.5, 30° C.): 24.8 ± 0.02 s⁻¹
kss ([1]; pH 7.5, 37° C.): 19.5 ± 0.01 s⁻¹
kss ([1]; pH 7.5, 40° C.): 29.1 ± 0.02 s⁻¹
kss ([1]; pH 7.5, 50° C.): 21.1 ± 0.01 s⁻¹
kss ([1]; pH 7.5, 60° C.): 37.8 ± 0.03 s⁻¹
substrate specificity [2]: I^−>SCN^−>Br^− Cl^−
kreturn/K1/2 [3]: 5169 ± 4872 M⁻¹ s⁻¹
